For seven sequences, binding results are on record in publication PMC10976474.

Data set [1] has as its target T1, MBP-PhoB (Synechococcus sp. WH7803) (UniProt A0ACE0B1Y2).
T1 sequence: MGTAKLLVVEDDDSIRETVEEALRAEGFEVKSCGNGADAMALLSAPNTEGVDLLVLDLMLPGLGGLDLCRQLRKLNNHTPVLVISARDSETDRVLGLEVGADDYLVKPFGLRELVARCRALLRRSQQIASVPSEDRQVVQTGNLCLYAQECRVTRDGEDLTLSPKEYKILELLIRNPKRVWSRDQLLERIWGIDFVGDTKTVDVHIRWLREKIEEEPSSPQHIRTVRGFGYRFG
Nature of the data set: EMSA. The settings on record: 10 mM Tris-HCl pH 8, 50 mM KCl, 2 mM MgCl2, 5% glycerol, 0.05 mg/mL BSA, 1 mM DTT, 3 mM spermidine (described as 2x binding buffer); 25 ng DNA, 30 min at 23 C …. Background: A gel shift assay detects complexes by their altered migration in electrophoresis.

Data set [2] addresses T1, MBP-PhoB (Synechococcus sp. WH7803). Nature of the data set: competition. The following applies: 10 mM Tris-HCl pH 8, 50 mM KCl, 2 mM MgCl2, 5% glycerol, 0.05 mg/mL BSA, 1 mM DTT, 3 mM spermidine (described as 2x binding buffer); 25 ng DNA, 30 min at 23 C ….

Turning to “AGGGGTACTGGATCATTTCTGAAGTTGAAGAAATTGATGGTTTGGAGTTTGGGGACCCCGATTGTATGTTAAAATATCCATATGCAGTTGAACAAGGGGTCCTCGTCCCATGGCCACCATATTCAACAGAAAAAAAGATCATTGTAAGATCTTCCGAGATCAGTGTCATGGTTGATCCAGATGCTCCTCGCCTTGCAGATTATGCCAAATTGAAATCAGAAGAGACCTAATGAAATTTTACACCAGCGTACAACAAGCAGGTA (double strand) [S-PM2d133 (gp43) promoter (full-length fragment)]”, the binding result in data set [1] is reported as “binds”.

“AGTTCTTCCCGAGGATTTGTTCGATGAATTCTGAACCAGTAACATCACTTTATCTCTCATTTAACCAAATCAAGTATATTCTTGATGTTATGTGGGGAACCGATCCAGTTACAGCAAAACTATTTGCAAACTCTCACGGAGTTGATGATACCGAACTGGAACGTTATCTTTCCTCTCGTTTAACTGATGGTGATATAACTAAAGTAGATTATACAATTCTTGGAGAAAAATGATTAATGTCAAACAAGAAGATAACGGCAGCTTCAC (double strand) [FAM-S-PM2d004 promoter]”: the binding entry in data set [1] was “binds”.

With “AGTTCTTCCCGAGGATTTGTTCGATGAATTCTGAACCAGTAACATCACTTTATCTCTCATTTAACCAAATCAAGTATATTCTTGATGTTATGTGGGGAACCGATCCAGTTACAGCAAAACTATTTGCAAACTCTCACGGAGTTGATGATACCGAACTGGAACGTTATCTTTCCTCTCGTTTAACTGATGGTGATATAACTAAAGTAGATTATACAATTCTTGGAGAAAAATGATTAATGTCAAACAAGAAGATAACGGCAGCTTCAC (double strand) [S-PM2d004 promoter (full-length fragment)]”, the binding entry in data set [1] and in data set [2] was “binds” each time.

In the case of “CAGCAAGAGCGACTTCAATTTCGAAGTTATTATTGTCATGTTTGATTAAATTGTAGGGCGGGTAATTTTTATTGTGATGTGTCATCGAATCCAATCGATGAAATACATCATCCAGACCTACAAAGTGGGGGGAGTAAATATCCCAAGTGAATTTAGTCATTGCTTTCTCCTTTATTTAAGCGAGTTTGAATTAGGATCTCA (double strand) [S-PM2d130 (hsp20) promoter]”, in data set [1], the binding entry is listed as “no binding”.

In the case of “GTAACTTCCGACACAAATTCTTGATAGCGTTCAAAGTTTACTTTAGACATATTAGATAATAAAAGAACTGAATTTGTCAATTCGCTTTTGGCGAGTTGAAAGGTCTTCAAAAGAATCCGCTAGATCTTCCTGTTCGACAAGAGCATCAGCAGATGTCTCATCATCAACATTATACAGCTTCATCTTTGCTCTGTCAATACCAACTGTAAAACGGCGATGCATCGTAGGATCATTATATCGATTCTTCAATTGCTTCACCATAATACGACTGGATTGTTCT (double strand) [S-PM2d136 (mazG) promoter]”, the binding entry in data set [1] and in data set [2] was “no binding” each time.

On to “TACACTATCTAGGAAACTCATAAATTACCTCTTAGAAAAAACTTAATAGAGAAACTTTTTTCTCATAATCCCAACCAATACATTCTAGCACATTTTTCAATGGTTCCAAGAAAGACTTCTCAAACTGAGTCTGATAGTCAATATACTTATCAACGTTAAACTCCTTGGGAATGTCACTGAAGAATGATATGCAGTTCTCCTGAATTGGGTTTGGTGTTCTCAAG (double strand) [FAM-S-PM2d134 promoter]”, for which the binding entry in data set [1] is on record as “binds”.

For “TACACTATCTAGGAAACTCATAAATTACCTCTTAGAAAAAACTTAATAGAGAAACTTTTTTCTCATAATCCCAACCAATACATTCTAGCACATTTTTCAATGGTTCCAAGAAAGACTTCTCAAACTGAGTCTGATAGTCAATATACTTATCAACGTTAAACTCCTTGGGAATGTCACTGAAGAATGATATGCAGTTCTCCTGAATTGGGTTTGGTGTTCTCAAG (double strand) [S-PM2d134 (uvsX) promoter]”, the binding result in data set [1] and in data set [2] was “binds” each time.
